Reference: patent EP4624492A1 (Shanghai Hongcheng Biopharmaceutical Co., Ltd., dated 2025)
Read-outs that look alike come from different tables or passages of the source.

What was measured:
human CCR8 [1] = target: T1, human CCR8 (human, UniProt P51685 1-355); assay: flow cytometry, competition with 10 nM AF647-human CCL1 on 293F-hCCR8 cells
T1 construct: whole, on cells; the cell line is named under assay; also called hCCR8

human CCR8 [2] = target: T1, human CCR8; assay: flow cytometry on 293F-hCCR8 cells
human CCR8 [3] = target: T1, human CCR8; assay: flow cytometry on 293F-hCCR8 cells; remark: listed apart in the source
human CCR8 [4] = target: T1, human CCR8; assay: cell-based or functional assay
human CCR8 [5] = target: T1, human CCR8; assay: cell-based or functional assay; remark: listed apart in the source
human CCR8 [6] = target: T1, human CCR8; assay: flow cytometry, competition with 10 nM AF647-human CCL1 on 293F-hCCR8 cells; remark: listed apart in the source
cynomolgus CCR8 = target: T2, cynomolgus CCR8 (cynomolgus monkey); assay: flow cytometry on 293T-cynoCCR8 cells
T2 construct: whole, on cells; the constructs of the cell lines are not tied to it word for word; also called cynoCCR8

human CCR8 [7] = target: T1, human CCR8; assay: cell-based or functional assay; remark: listed apart in the source
human CCR8 [8] = target: T1, human CCR8; assay: cell-based or functional assay; remark: listed apart in the source
human CCR8 [9] = target: T1, human CCR8; assay: flow cytometry on CHOK1-hCCR8 cells
human CCR8 [10] = target: T1, human CCR8; assay: flow cytometry on HuT78 cells (endogenous CCR8)
human CCR8 [11] = target: T1, human CCR8; assay: cell-based or functional assay; remark: listed apart in the source
human CCR8 [12] = target: T1, human CCR8; assay: cell-based or functional assay; remark: listed apart in the source
human CCR8 [13] = target: T1, human CCR8; assay: cell-based or functional assay; remark: listed apart in the source

T1 sequence (P51685 whole entry): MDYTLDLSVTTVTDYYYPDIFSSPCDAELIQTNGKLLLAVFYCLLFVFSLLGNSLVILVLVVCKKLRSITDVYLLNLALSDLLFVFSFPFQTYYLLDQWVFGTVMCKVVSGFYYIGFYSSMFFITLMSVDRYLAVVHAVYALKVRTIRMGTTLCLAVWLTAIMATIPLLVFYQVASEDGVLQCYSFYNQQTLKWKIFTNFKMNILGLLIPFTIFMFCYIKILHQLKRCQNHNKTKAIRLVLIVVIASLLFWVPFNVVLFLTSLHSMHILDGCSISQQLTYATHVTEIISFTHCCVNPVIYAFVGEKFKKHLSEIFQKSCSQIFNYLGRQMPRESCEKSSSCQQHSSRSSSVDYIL

| Binder | IC50 (human CCR8 [1]) | EC50 (human CCR8 [2]) | EC50 (human CCR8 [3]) | EC50 of activation of Jurkat-human FcγRIIIa(158V)-NFAT with 293F-hCCR8 target cells (human CCR8 [4]) | IC50 of blockade of CCL1-induced β-arrestin recruitment (human CCR8 [5]) | IC50 (human CCR8 [6]) | EC50 (cynomolgus CCR8) | EC50 of activation of Jurkat-human FcγRIIIa(158V)-NFAT with HuT78 target cells (human CCR8 [7]) | EC50 of activation of Jurkat-human FcγRIIIa(158V)-NFAT with CHOK1-hCCR8 target cells (human CCR8 [8]) | EC50 (human CCR8 [9]) | EC50 (human CCR8 [10]) | EC50 of activation of Jurkat-human FcγRIIIa(158V)-NFAT with 293F-hCCR8 target cells (human CCR8 [11]) | EC50 of ADCC effect (lysis%) by human PBMCs on CHOK1-hCCR8 cells (human CCR8 [12]) | EC50 of activation of Jurkat-human FcγRIIIa(158V)-NFAT with 293F-hCCR8 target cells (human CCR8 [13]) |
| --- | --- | --- | --- | --- | --- | --- | --- | --- | --- | --- | --- | --- | --- | --- |
| 563E10E12_hIgG1 (antibody, also called hIgG1-subclass chimeric antibody 563E10E12) heavy: not shown light: DVVMTQAAFSNPVTLGTSTSISCRSSKSLLHSNGITYLFWYLQKPGQSPQLLIYQMSNLASGVPDRFSGSGSGTDFTLRISRVEAEDVGVYYCAQSLELPLTFGGGTKLEIKRTVAAPSVFIFPPSDEQLKSGTASVVCLLNNFYPREAKVQWKVDNALQSGNSQESVTEQDSKDSTYSLSSTLTLSKADYEKHKVYACEVTHQGLSSPVTKSFNRGEC | 0.0513 µg/mL | 0.0273 µg/mL | 0.073 µg/mL | 0.0216 µg/mL | 1.72 µg/mL | 0.0295 µg/mL | 0.0473 µg/mL | – | – | – | – | – | – | – |
| 563E10E12_hzH1L0_hIgG1 (antibody, Humanized, hIgG1/K) heavy: not shown light: DIVMTQSPLSLPVTPGEPASISCRSSKSLLHSNGITYLFWYLQKPGQSPQLLIYQMSNLASGVPDRFSGSGSGTDFTLKISRVEAEDVGVYYCAQSLELPLTFGGGTKVEIKRTVAAPSVFIFPPSDEQLKSGTASVVCLLNNFYPREAKVQWKVDNALQSGNSQESVTEQDSKDSTYSLSSTLTLSKADYEKHKVYACEVTHQGLSSPVTKSFNRGEC | 0.0852 µg/mL | – | 0.103 µg/mL | 0.0279 µg/mL | 1.46 µg/mL | – | 0.0227 µg/mL | 0.0409 µg/mL | 0.0299 µg/mL | 0.0376 µg/mL | 0.054 µg/mL | 0.0135 µg/mL | 0.00471 µg/mL | – |
| 563E10E12_hzH1L1_hIgG1 (antibody, Humanized, hIgG1/K) heavy: not shown light: DVVMTQSPLSLPVTPGEPASISCRSSKSLLHSNGITYLFWYLQKPGQSPQLLIYQMSNLASGVPDRFSGSGSGTDFTLKISRVEAEDVGVYYCAQSLELPLTFGGGTKVEIKRTVAAPSVFIFPPSDEQLKSGTASVVCLLNNFYPREAKVQWKVDNALQSGNSQESVTEQDSKDSTYSLSSTLTLSKADYEKHKVYACEVTHQGLSSPVTKSFNRGEC | 0.0835 µg/mL | – | 0.124 µg/mL | 0.0283 µg/mL | 1.61 µg/mL | – | 0.0264 µg/mL | – | – | 0.0423 µg/mL | 0.0545 µg/mL | 0.0089 µg/mL | – | – |
| 559E1B10_hzH1L1_hIgG1 (antibody, Humanized, hIgG1/K) heavy: not shown light: EIVLTQSPATLSLSPGERATLSCRASQSISDYLHWYQQKPGQAPRLLLKYVSQSISGIPARFSGSGSGTDFTLTISSLEPEDFAVYYCQNGHSFPLTFGGGTKVEIKRTVAAPSVFIFPPSDEQLKSGTASVVCLLNNFYPREAKVQWKVDNALQSGNSQESVTEQDSKDSTYSLSSTLTLSKADYEKHKVYACEVTHQGLSSPVTKSFNRGEC | 0.15 µg/mL | – | 0.114 µg/mL | – | 28.1 µg/mL | – | 0.0876 µg/mL | – | 0.0265 µg/mL | 0.036 µg/mL | 15.2 µg/mL | 0.0133 µg/mL | – | 0.0421 µg/mL |
